8 sequences from the Immune Epitope Database (IEDB) can be followed below.

Some results are limits rather than exact numbers.

For one experiment, the target named is HLA-A*01:01. In words: IEDB peptide-MHC binding, purified MHC/direct/fluorescence; filed as Kd, often an IC50 or EC50 that approximates it; ≥ and ≤ were set here for values at or beyond the usual limits of such assays.
Experiment [1] addresses HLA-A*02:01. The experiment is described as above.
For a further experiment, the target named is HLA-A*03:01. Described as above.
In another experiment the target is HLA-A*11:01. The description is as above.
In the next experiment the target is HLA-A*26:01. The experiment is described as above.
For another experiment, the target named is HLA-A*31:01. The description is as above.
The target in another experiment is HLA-A*69:01. Described as above.
A further experiment has as its target HLA-B*07:02. Described as above.
A further experiment deals with HLA-B*08:01. Described as above.
The target of another experiment is HLA-B*15:01. The description is as above.
For a further experiment, the target named is HLA-B*27:05. The experiment is described as above.
A further experiment deals with HLA-B*35:01. Described as above. The following applies: source organism: Corynebacterium glutamicum.
In another experiment the target is HLA-B*40:01. The description is as above.
A further experiment has as its target HLA-B*58:01. The experiment is described as above.
The target in the next experiment is HLA-B*15:02. Nature of the experiment: IEDB peptide-MHC binding, purified MHC/competitive/fluorescence; filed as Kd, often an IC50 or EC50 that approximates it; ≥ and ≤ were set here for values at or beyond the usual limits of such assays.
The next experiment deals with HLA-C*04:01. In words: IEDB peptide-MHC binding, purified MHC/direct/fluorescence; filed as Kd, often an IC50 or EC50 that approximates it; ≥ and ≤ were set here for values at or beyond the usual limits of such assays.
A further experiment has as its target HLA-A*23:01. In words: IEDB peptide-MHC binding, purified MHC/competitive/fluorescence; filed as Kd, often an IC50 or EC50 that approximates it; ≥ and ≤ were set here for values at or beyond the usual limits of such assays. As to conditions: source organism: Cryptosporidium parvum Iowa II.
The next experiment has as its target HLA-A*26:02. Nature of the experiment: IEDB peptide-MHC binding, purified MHC/direct/fluorescence; filed as Kd, often an IC50 or EC50 that approximates it; ≥ and ≤ were set here for values at or beyond the usual limits of such assays. As to conditions: source organism: Mycobacterium tuberculosis str. Haarlem.
For the next experiment, the target named is HLA-A*68:02. Described as above. As to conditions: source organism: Mycobacterium tuberculosis.
In a further experiment the target is HLA-B*08:02. The experiment is described as above. As to conditions: source organism: Mycobacterium tuberculosis str. Haarlem.
For the next experiment, the target named is HLA-B*08:03. The description is as above. The following applies: source organism: Mycobacterium tuberculosis str. Haarlem.
In another experiment the target is HLA-B*15:17. The description is as above. The following applies: source organism: Mycobacterium tuberculosis.
Another experiment addresses HLA-B*46:01. The description is as above. As to conditions: source organism: Mycobacterium tuberculosis.
A further experiment addresses HLA-B*48:01. Described as above. As to conditions: source organism: Mycobacterium tuberculosis.
The next experiment deals with HLA-B*57:01. The experiment is described as above. The following applies: source organism: Mycobacterium tuberculosis.
The target in experiment [2] is HLA-A*02:01. In words: IEDB peptide-MHC binding, purified MHC/competitive/fluorescence; filed as Kd, often an IC50 or EC50 that approximates it; ≥ and ≤ were set here for values at or beyond the usual limits of such assays. The following applies: source organism: Mycobacterium tuberculosis variant bovis BCG str. Pasteur 1173P2.
The target in the next experiment is HLA-A*24:03. In words: IEDB peptide-MHC binding, purified MHC/direct/fluorescence; filed as Kd, often an IC50 or EC50 that approximates it; ≥ and ≤ were set here for values at or beyond the usual limits of such assays.
The target of the next experiment is HLA-B*44:02. Described as above. As to conditions: source organism: Yersinia pestis.
The target in the next experiment is HLA-A*02:50. Nature of the experiment: IEDB peptide-MHC binding, purified MHC/competitive/fluorescence; filed as Kd, often an IC50 or EC50 that approximates it; ≥ and ≤ were set here for values at or beyond the usual limits of such assays.
A further experiment deals with HLA-A*02:11. In words: IEDB peptide-MHC binding, purified MHC/direct/fluorescence; filed as Kd, often an IC50 or EC50 that approximates it; ≥ and ≤ were set here for values at or beyond the usual limits of such assays. The following applies: source organism: Burkholderia mallei ATCC 23344.
The mark [3] stands for this setting: source organism: Corynebacterium glutamicum.
Where [4] appears, read: source organism: Corynebacterium efficiens.
[5] abbreviates: source organism: Mycobacterium tuberculosis.
The mark [6] stands for this setting: source organism: Yersinia pestis.
[7] abbreviates: source organism: Burkholderia mallei.
[8] abbreviates: source organism: Haemophilus influenzae.

One may read the Kd as the free concentration of one partner at which half of the binding sites on the other are occupied at equilibrium, for simple one-to-one binding. Read a low Kd as higher affinity. Consider VQLQEYDTY, for which the Kd with HLA-A*01:01 (setting [3]) is at least 5 µM; in the experiment with HLA-A*02:01 [1] (setting [4]), at least 20000 nM; with HLA-A*03:01 (setting [4]), at least 20 µM; with HLA-A*11:01 (setting [4]), at least 20 µM; with HLA-A*26:01 (setting [4]), at least 20 µM; with HLA-A*31:01 (setting [4]), at least 20 µM. In addition, the Kd with HLA-A*69:01 (setting [4]) was at least 20 µM; with HLA-B*07:02 (setting [4]), at least 20 µM; with HLA-B*08:01 (setting [4]) it was at least 20 µM; in the experiment with HLA-B*15:01 (setting [3]), 199 nM; with HLA-B*27:05 (setting [4]), at least 20 µM; with HLA-B*35:01 it was 383 nM. Besides, the equilibrium dissociation constant (Kd) with HLA-B*40:01 (setting [4]), with HLA-B*58:01 (setting [4]) and with HLA-B*15:02 (setting [4]) was at least 20 µM in each case.
For the sequence TFMGMNVQF, the values for the Kd with HLA-C*04:01 (source organism: Cryptosporidium parvum Iowa II) and in the experiment with HLA-A*23:01 were at least 20 µM and 1.2 nM, respectively.
KLVGIELPK: the Kd with HLA-A*01:01 (setting [5]) is at least 20 µM; with HLA-A*11:01 (setting [5]) it was 0.0733 µM; with HLA-A*26:02, at least 20 µM; with HLA-A*31:01 (setting [5]), 6.82 µM; in the experiment with HLA-A*68:02 it was at least 20 µM; with HLA-A*69:01 (setting [5]), at least 20 µM. The Kd with HLA-B*07:02 (setting [5]) is at least 20 µM; with HLA-B*08:01 (source organism: Mycobacterium tuberculosis str. Haarlem) it was at least 20 µM; in the experiment with HLA-B*08:02 it was at least 20 µM; with HLA-B*08:03, at least 20 µM; with HLA-B*15:01 (setting [5]) it was at least 20000 nM; with HLA-B*15:17, at least 20 µM. Moreover, the Kd with HLA-B*27:05 (setting [5]), in the experiment with HLA-B*40:01 (setting [5]), in the experiment with HLA-B*46:01, in the experiment with HLA-B*48:01, in the experiment with HLA-B*57:01 and with HLA-B*58:01 (setting [5]) was at least 20 µM throughout. In the experiment with HLA-A*02:01 [2], the Kd is at least 20 µM.
On to LLIDDSFSS, for which the Kd was at least 20 µM with HLA-A*01:01 (setting [6]); 650 nM with HLA-A*02:01 [1] (setting [6]); at least 20 µM in the experiment with HLA-A*03:01 (setting [6]); at least 20 µM in the experiment with HLA-A*11:01 (setting [6]); at least 20 µM with HLA-A*24:03 (setting [6]); at least 20 µM with HLA-A*26:01 (setting [6]). Moreover, the Kd with HLA-A*31:01 (setting [6]) is at least 20 µM; with HLA-A*69:01 (setting [6]), at least 20 µM; with HLA-B*07:02 (setting [6]), at least 20 µM; with HLA-B*08:01 (setting [6]), at least 20 µM; in the experiment with HLA-B*15:01 (setting [6]) it was 1890 nM; with HLA-B*27:05 (setting [6]), at least 20 µM. For the same sequence, the Kd with HLA-B*40:01 (setting [6]) was at least 20 µM; with HLA-B*44:02, at least 20 µM; with HLA-B*58:01 (setting [6]) it was at least 20 µM; with HLA-A*02:50 (source organism: Yersinia pestis Nepal516) it was 2.5 nM.
MQQAYQCIV: the Kd with HLA-A*02:01 [1] (setting [7]) was 86.5 nM; in the experiment with HLA-A*02:11, 28 nM; in the experiment with HLA-A*69:01 (setting [7]) it was 9.04 µM; with HLA-A*02:50 (source organism: Burkholderia mallei NCTC 10229), 11.6 nM.
Consider LIFPAFFLC, for which the Kd was 5.24 µM with HLA-A*01:01 (setting [8]); 5100 nM with HLA-A*02:01 [1] (setting [8]); at least 20 µM in the experiment with HLA-A*03:01 (setting [8]); at least 20 µM in the experiment with HLA-A*11:01 (setting [8]); at least 20 µM in the experiment with HLA-A*24:03 (setting [8]); at least 20 µM in the experiment with HLA-A*26:01 (setting [8]). Besides, the Kd in the experiment with HLA-A*31:01 (setting [8]) is at least 20 µM; with HLA-A*69:01 (setting [8]), at least 20 µM; with HLA-B*07:02 (setting [8]), at least 20 µM; in the experiment with HLA-B*08:01 (setting [8]), at least 20 µM; in the experiment with HLA-B*15:01 (setting [8]), at least 20000 nM; in the experiment with HLA-B*27:05 (setting [8]) it was at least 20 µM. For the same sequence, the figures for the Kd with HLA-B*40:01 (setting [8]), in the experiment with HLA-B*58:01 (setting [8]) and with HLA-A*02:50 (source organism: Haemophilus influenzae PittAA) were at least 20 µM, at least 10 µM and 12 nM, respectively.
For SLYDIITVM, the Kd with HLA-B*15:02 (source organism: Listeria monocytogenes) is at least 20 µM.
As for MYTRNLLWL, the Kd was 0.0018 µM with HLA-A*24:03 (source organism: Escherichia coli) and at least 20 µM in the experiment with HLA-C*04:01 (source organism: Escherichia coli HS).
